Results taken from the DeepSol protein solubility set.

test: soluble on expression in E. coli; label from the status in PepcDB or PDB records

Sequence	soluble on expression in E. coli
AKPIDVSRLDLRIGCIITARKHPDADSLYVEEVDVGEIAPRTVVSGLVNHVPLEQMQNRMVILLCNLKPAKMRGVLSQAMVMCASSPEKIEILAPPNGSVPGDRITFDAFPGEPDKELNPKKKIWEQIQPDLHTNDECVATYKGVPFEVKGKGVCRAQTMSNSGIKLEHHHHHH	soluble
MGSDKIHHHHHHMIYSVDKKDIEIGISACLIGEKVRFDASNKPSHFCIKEFSEHVSYKSFCPEVAVGLPIPRPTIRQIKRDDVIHVSQKDGSGDVTEALKAYGKKVASMTKSLSGYIFCAKSPSCGMERVKIYSPEGNSLPSKGIGAFAKEIMDANPLLPCEENGRLNDPLLRENFVARVFAYKHWQTIVESGLTKHKLTTFHSHYKYTVMSHDLIAYKELGQLLARADLPLDEVAAQYILGLMTALKIIATRKKHANTLAHIQGYFSKHLQANERQELCEQIDAYREGLIPLMAPLTLIKHYLLNHPKDYLTKQAYLSPYPDKLRLRYAY	not soluble
MGSDKIHHHHHHMTQTDSLPGVQATVQDMGERARRAARVLRSLPTGRKVQALRALAAELRAREAGILAANAQDVQAAEAAGLPAPLVDRLRLSAGALAAIARDVEAVAALPDPVGEQTDEKTLPSGIRVSQRRVPLGVLGVIYESRPNVTVDVAALALMSGNAAILRGGKETVNSNAALEDAIHAALNREGLPADAVQVIRDPDRARMLELLRLDESVDAIIPRGGAGLHRFCVENATVPVIVGGIGVVHIYLDGSFVQTPQDVQIAAALIRNAKTQKPSACNALDTLLIDRAALAALPDVVRPLLESGVEVRADAEAQAALAGAGLNVTSAQLGDYGTEFLALVASLRTVSGLDEALDFIAERGGHTDVILTRDPAQAERFVQDVDSAAVMVNVSPRFNDGGQLGLGAEVAISTQKLHARGPMGLRELTTSKWVVRGEGQVRD	not soluble
SKSFNYSVSFNLSDYQGTVLKYSNPKGLIYDYYVGKKMGTIWGYTTDHIMTDPAEAKAINDSGVQNKFGGDWVVGDIKYVNLDDDPNINDGNQTLEDHGDLSIIGNDTPRYNFGFGFNADWNGIDFSMFLQGTMKRDLWLEGPVAFGLGGGQWGSNVWKNTLDCWREDGSNPDPWLPRLYLWSTSKNLQKQTRYMDTGAYCRLKNIQLGYSLPGAIINKVGLEKVRIYFSGDNLLTFSGINENFDPEAPWGGAYPISKSISFGVNVTF	not soluble
MAHHHHHHMITMECITKKIKTIFQNSIQKCFPSISEDAIVTYANLKFGHYQCNNAINIYKKYGKELNYENAQKISEFIISNINETIFEEIKSSPQGFITVKLSKDYIETSLKKLFNGEKIDISININDIKESNENYGNVLVDFSSPNIAKEMHVGHLRSTIIGDSICRVFEFLKINTHRVNHVGDWGTQFGMIINYIKTHYPNFKEEMPDLSNLTSLYQESKKMYDADKEFEKSSKENAIKLQNNDEDCKFVWNKLCESSKKEFDKLYNILDIKLEYVGESFYVPMLSTVLDLLKESKLLTNIGDAICYQSENFKVPLFLQKSNGGYGYDSTDVAALYYRLTQLNCNCVIYVTDIGQLTHFETIFDLIKKTNWGDKNAKLMHVGFGFVLNEDNKKFKTRSGTTVKLINLIKEGTERAKRDLLQRIETKSEEEKSYFENVDIDQLSESLCVSAIKYFDLKQHRNSDYKFSYDNMLNVKGNTGIYIIYGYSRICSIFRKSTINVEDISKDELSLTSIYEINLGLHILKFPDIFYYILKNMLVHKLAEYMYDLTTTFTAFYENCKVLNNENEKSRLLLCSITKSLLKLCMELLGMKPIEKL	soluble
SSPATVTEPLKAEPAEAPVPLLRVSPSSLQCEPGYLLPNSPVLGTGGVTGYEYLTNILSSKVYDVAYETPLQKAPKLSERLGVNVLKREDLQPVFSFKIRGAYNMMAKLPKEQLEKGVICSSAGNHAQGVALSAQRLGCDAVIVMPVTTPDIKKSVKRLGATVVLVGDSYDEAQAYAKKRAESEGRTFIPPFDHPDVIVGQGTVGMEINRQLKDNIHAIFVPVGGGGLIAGIAAYLKRVAPDIKIIGVEPLDANALALSLHHGQRVMLDQVGGFADGVAVKVVGEETYRLCEELIDGVVLVGRDAICASIKDMFEEKRSILEPAGALALAGAEAYCKYYGLKGENVVAITSGANMNFDRLRLVTELADVGRQREAVLATFMPEDPGSFKKFAEMVGPMNITEFKYRYNSDKERALVLYSVGLHTILELEGMVERMESADLQTINLTDNDLVKDHLRHLMGGRTNVHNELLCRFTFPEKPGALMKFLDAFSPRNISLFHYRAQGDTGANVLVGIQVPPDEVVEFEGRADSLGYEYAMESLNEAYQLIMH	soluble
MRILQLILLALATGLVGGETRIIKGFECKPHSQPWQAALFEKTRLLCGATLIAPRWLLTAAHCLKPRYIVHLGQHNLQKEEGCEQTRTATESFPHPGFNNSLPNKDHRNDIMLVKMASPVSITWAVRPLTLSSRCVTAGTSCLISGWGSTSSPQLRLPHTLRCANITIIEHQKCENAYPGNITDTMVCASVQEGGKDSCQGDSGGPLVCNQSLQGIISWGQDPCAITRKPGVYTKVCKYVDWIQETMKNN	soluble
ASGSMQGDPDVLRLLNEQLTSELTAINQYFLHSKMQDNWGFTELAAHTRAESFDEMRHAEEITDRILLLDGLPNYQRIGSLRIGQTLREQFEADLAIEYDVLNRLKPGIVMCREKQDTTSAVLLEKIVADEEEHIDYLETQLELMDKLGEELYSAQCVSRPPTSAWSHPQFEK	soluble
MAISQFFEKIDRYYQKNLKEYEFSEEYSDISFNTFLYLRKINSLGNPTMSELAKAMEVSKPSASNMVSKMTEKGLVETGASPKDGRVCLLGLTDKGKKVIEIENGADMKFFEKIREILDEEELEVLERIFEKIAAGLEGEKHDR	not soluble
VLIARRPEDKHQGGLWEFPGGKVEDGEPVRAALARELEEELGIRVERARPLIQVRHDYADKHVLLDVWEVDGFSGEAHGAEGQPLAWVEPRELADYEFPAANAPIVQAARLPAHYLITPDGLEPGELISGVRKAVEAGIRLIQLRAPNMFSPEYRDLAIDIQGLCAGKAQLMLKGPLEWLGDFPAAGWHLTSAQLRKYASAGRPFPEGRLLAASCHDAEELALAASMGVEFVTLSPVQPTESHPGEPALGWDKAAELIAGFNQPVYLLGGLGPQQAEQAWEHGAQGVAGIRAFWPGGL	not soluble
MGSDKIHHHHHHMHGKLVEVADGVYAYIQGRGEWFVNNAGLIVGEEFSVVVDSVCNEQRAKEMISQFREVTAKDFRILINTHGHPDHVWTNHLFDAVAVAHEMGRQETLMAFVEIYQSLFPDLDFSGAKITPQNITFESRMKLYNDAEMQIIHPGVAHTRGDCYIYIPQKKVVFCGDLLFAKPCTPLAVGGSVRGSVNALRELLNLDAKIYVPGHGGLAGEEHLVEAIEYFEFVWEEAKKRHERGMGWYEAAMDIDLGEYAKWSEAERIVGNVARAYAEIEGRELEFAELVEVARKMLEYGGGRK	not soluble
MGSSHHHHHHSSGLVPRGSHMAHQDALPRLPVPPLQQSLDYYLKALQPIVSEEEWAHTKQLVDEFQTSGGVGERLQKGLERRAKKMENWLSEWWLKTAYLQFRQPVVIYSSPGVILPKQDFVDLQGQLRFAAKLIEGVLDFKSMIDNETLPVEFLGGQPLCMNQYYQILSSCRVPGPKQDSVVNFLKSKRPPTHITVVHNYQFFELDVYHSDGTPLTSDQIFVQLEKIWNSSLQSNKEPVGILTSNHRNTWAKAYNNLIKDKVNRESVNSIQKSIFTVCLDKQVPRVSDDVYRNHVAGQMLHGGGSKFNSGNRWFDKTLQFIVAEDGSCGMVYEHAAAEGPPIVALVDHVMEYTKKPELVRSPMVPLPMPKKLRFNITPEIKNDIEKAKQNLSIMIQDLDIMMLTFHHFGKDFPKSEKLSPDAFIQVALQLAYYRIYGQACATYESASLRMFHLGRTDTIRSASIDSLAFVKGMGDSTVPEQQKVELLRKAVQAHRAYTDRAIRGEAFDRHLLGLKLQAIEDLVSMPDIFMDTSYAIAMHFNLSTSQVPAKTDCVMAFGPVVPDGYGICYNPMEAHINFSVSAYNSCAETNAARMAHYLEKALLDMRTLLQNHPRAKL	soluble
MRTRNMQDFEGPLPDLLESALTWVKQNAPTQNVYDSSGHMRKESVYPLPAVRELIANALVHRDLSPNSDGKWVEIRLCDDRLVISNPGGLRGVSVKQLESATLSKNAVNPRLYDIAKRVRTEGAGIQEVLRQTCQALLAKPQLIDTGVQFTAILYGASVFSEAELEWLRSIGGDGLTAVEKHLLVGLRKGESWHLSRILNEFSPITVAEAEKLMHGLKKRGFIESDNKTFTLGAHSENQAPRVEKEETTLAKITKNAPTIAHALELKPEQSFEELLRTTGLSQGQLRFALDKLQAVGLVVREGGWGVHGTTYHWSAQT	not soluble
